Assay results: patent US20210363269A1 (ALX ONCOLOGY, published 2021)

T1: high affinity SIRP-α D1 variant CV1-3
T1 chain: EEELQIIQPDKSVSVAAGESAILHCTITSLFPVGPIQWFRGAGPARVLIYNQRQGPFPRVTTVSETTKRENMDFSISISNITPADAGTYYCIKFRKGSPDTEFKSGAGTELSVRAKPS

T2: cynomolgus SIRP-α D1 domain (cyno1) (cynomolgus monkey, UniProt Q5TFQ8 30-148 (human entry), limits assumed)
T2 chain: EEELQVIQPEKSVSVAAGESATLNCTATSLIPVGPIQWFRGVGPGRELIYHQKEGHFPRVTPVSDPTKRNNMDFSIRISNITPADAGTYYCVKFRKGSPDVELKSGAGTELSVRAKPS

T3: cynomolgus SIRP-α D1 domain (cyno2) (cynomolgus monkey, UniProt Q5TFQ8 30-148 (human entry), limits assumed)
T3 chain: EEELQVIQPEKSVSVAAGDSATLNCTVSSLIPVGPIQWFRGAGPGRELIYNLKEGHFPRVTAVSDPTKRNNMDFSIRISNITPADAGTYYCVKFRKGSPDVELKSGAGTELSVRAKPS

T4: mouse 129 SIRP-α D1 domain (mouse (129 strain), UniProt P97797 32-150)
T4 construct: also called m129
T4 chain: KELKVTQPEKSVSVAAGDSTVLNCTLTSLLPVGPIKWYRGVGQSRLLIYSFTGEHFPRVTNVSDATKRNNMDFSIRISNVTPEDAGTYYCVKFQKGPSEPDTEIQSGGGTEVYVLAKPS

T5: NOD mouse SIRP-α D1 domain (mouse (NOD strain))
T5 chain: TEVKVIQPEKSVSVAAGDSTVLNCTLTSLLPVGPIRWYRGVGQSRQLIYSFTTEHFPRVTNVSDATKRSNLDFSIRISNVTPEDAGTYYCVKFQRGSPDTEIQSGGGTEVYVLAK

T6: C57BL/6 mouse SIRP-α D1 domain (mouse (C57BL/6 strain), UniProt P97797 32-148)
T6 sequence: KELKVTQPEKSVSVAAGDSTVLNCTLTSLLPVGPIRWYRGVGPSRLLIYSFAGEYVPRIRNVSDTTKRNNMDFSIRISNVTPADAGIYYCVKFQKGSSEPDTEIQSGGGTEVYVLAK

B1: S27 (scFv, V domains shown)
VH: DVQLVESGGGVVRPGESLRLSCAVSGFRFSSYAMSWVRQAPGKGLEWVSGISSGGDTYYVDSVKGRFTISRDNSKNTLYLQVNSLTAEDTAIYYCARETWNHLFDYWGLGTLVTVSS
VL: ALTQPASVSADLGETVKITCSGGDSSSHYYGWYQQKSPGSAPVTVIYSDDERPSDIPSRFSGSASGSTATLTITGVRVEDEAIYYCGAYDGSTYANTFGAGTTLTVL
notes: also called clone 27; scFv-Fc form of AB27
B2: S59 (scFv, V domains shown)
VH: DVQLVESGGGVVRPGESLRLSCAVSGFRFSSHAMSWVRQAPGKGLEWVSGISSGGDTYYVDSVKGRFTISRDNSKNTLYLQVNSLTAEDTAIYYCARETWNHLFDYWGLGTLVTVSS
VL: ALTQPASVSANLGETVKITCSGGDSSSHYYGWYQQKSPGSAPVTVIYSDDERPSDIPSRFSGSASGSTATLTITGVRVEDEAIYYCGAYDGSTYANTFGAGTTLTVL
notes: also called clone 59
B3: S55 (scFv, V domains shown)
VH: DVQLVESGGGVVRPGESLRLSCAVSGFRFSSYAMSWVRQAPGKGLEWVSGISSGGDTYYVDSVKGRFTISRDNSKNTLYLQVNSLTAEDTAIYYCARETWNHLFDYWGLGTLVTVSS
VL: ALTQPASVSANLGETVEITCSGGDSSSHYYGWYQQKSPGSAPVTVIYSDDERPSDIPSRFSGSASGSTATLTITGVRVEDEAIYYCGAYDGSTYANTFGAGTTLTVL
notes: also called clone 55
B4: S76 (scFv, V domains shown)
VH: DVQLVESGGGVVRPGESLRLSCAASGFTFSSYAMSWVRQAPGKGLEWLAGISAGGSDTYYIDSVKGRFTISRDNSKNSLYLQMNSLTAEDTAVYYCARETWNHLFDYWGLGTLVTVSS
VL: ALTQPASVSANPGETVKITCSGGDWYSTYYGWYQQKSPGSAPVTVIHSDDKRPSDIPSRFSGSASGSAATLTITGVRVEDEAVYYCAGYDGRTYINTFGAGTTLTVL
notes: also called clone 76
B5: S60 (scFv, V domains shown)
VH: DVQLVDSGGGVVRPGESLRLSCAASGFTFSSYAMSWVRQAPGKGLEWLAGISAGGSDTYYIDSVKGRFTISRDNSKNSLYLQMNSLTAEDTAVYYCARETWNHLFDYWGLGTLVTVSS
VL: ALTQPASVSANPGETVKITCSGGDYYSTYYGWYQQKSPGSAPVTVIHSDDKRPSDIPSRFSGSASGSAATLTITGVRVEDEAVYFCGAYDGRTYINTFGAGTTLTVL
notes: also called clone 60
B6: S56 (scFv, V domains shown)
VH: DVQLVESGGGVVRPGESLRLSCAASGFTFSSYAMSWVRQAPGKGLEWLAGISAGGSDTYYIDSVKGRFTISRDNSKNSLYLQVNSLTAEDTAVYYCARETWNHLFDYWGLGTLVTVSS
VL: ALTQPASVSANPGETVKITCSGGGYYSTYYGWYQQKSPGSAPVTVIHSDDKRPSDIPSRFSGSASGSAATLTITGVRVEDEAVYYCAGYDGRTYINTFGAGTTLTVL
notes: also called clone 56
B7: S65 (scFv, V domains shown)
VH: DVQLVESGGGVVRPGESLRLSCAASGFTFSSYAMSWVRQAPGKGLEWLAGISAGGSDTYYIDSVKGRFTISRDNSKNSLYLQMNSLTAEDTAVYYCARETWNHLFDYWGLGTLVTVSS
VL: ALTQPASVSANPGETVKITCSGGDYYSTYYGWYQQKSPGSAPVTVIHSDDKRPSDIPSRFSGSASGSAATLTITGVRVEDEAVYFCGAYDGRTYINTFGAGTTLTVL
notes: also called clone 65
B8: S17 (scFv, V domains shown)
VH: DVQLVESGGAVVRPGESLRLSCAASGFTFSSYAMSWVRQAPGKGLEWLAGISAGGSDTYYIDSVKGRFTISRDNSENSLYLQMNSLTAEDTAVYYCARETWNHLFDYWGLGTLVTVSS
VL: ALTQPASVSANPGETVKITCSGGDWYSTYYGWYQQKSPGSAPVTVIHSDDKRPSDIPSRFSGSASGSAATLTITGVRVEDEAVYYCAGYDGRTYINTFGAGTTLTVL
notes: also called clone 17
B9: S66 (scFv, V domains shown)
VH: DVQLVESGGGVVRPGESLRLSCAASGFTFSSYAMSWVRQAPGKGLEWLAGISAGGSDTYYIDSVKGRFTISRDNPKNSLYLQMSSLTAEDTAVYYCARETWNHLFDYWGLGTLVTVSS
VL: ALTQPASVSANPGETVKITCSGGDYYSTYYAWYQQKSPGSAPVTVIHSDDKRPSDIPSRFSGSASGSAATLIITGVRVEDEAVYYCGGYDGRTYINTFGAGTTLTVL
notes: also called clone 66; scFv-Fc form of AB66
B10: S69 (scFv, V domains shown)
VH: DLQLVESGGGVVRPGESLRLSCAASGFTFSSYAMSWVRQAPGKGLEWLAGISAGGSDTYYIDSVKGRFTISRDNSKNSLYLQMNSLTAEDTAVYYCARETWNHLFDYWGLGTLVTVSS
VL: ALTQPASVSANPGETVKIICSGGDYYSTYYGWYQQKSPGSAPVTVIHSDDKRPSDIPSRFSGSASGSAATLTITGVRVEDEAVYFCGAYDGRTYINTFGAGTTLTVL
notes: also called clone 69
B11: S23 (scFv, V domains shown)
VH: DVQLVESGGGVVRPGESLRLSCAASGFTFSSHAMSWVRQAPGKGLEWLAGISAGGSDTYYIDSVKGRFTISRDNSKSSLYLRMNSLTAEDTAVYYCARETWNHLFDYWGLGTLVTVSS
VL: ALTQPASVSANPGETVKITCSGGDYYSTYYAWYQQKSPGSAPVTVIHSDDERPSDIPSRFSGSASGSAATLIITGVRVEDEAVYFCGGYDGRTYINTFGAGTTLTVL
notes: also called clone 23

Tests used:
Experiment in all cases: SPR, Langmuir fit
[1] = biological target: T1, high affinity SIRP-α D1 variant CV1-3
Summary of the method: (§1)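 Pre-filtered culture media supplied the scFv-Fc antibody clones, which were captured by anti-human IgG Fc amine-coupled (about 4000 RU) to a GLC chip on a ProteOn XPR36. SIRP analytes were flowed in PBS pH 7.4 with 0.01% Tween-20 at 25° C. Interspot and buffer-blank responses were subtracted from the data, which were then fitted to a 1:1 Langmuir model. Dissociation rate constants (koff) were derived from this fitting.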

[2] = biological target: T7, human SIRPγ isoform 1 (human, UniProt Q9P1W8 29-147)
T7 construct: also called SIRPg; sirpg
T7 sequence (Q9P1W8 29-147 limits assumed): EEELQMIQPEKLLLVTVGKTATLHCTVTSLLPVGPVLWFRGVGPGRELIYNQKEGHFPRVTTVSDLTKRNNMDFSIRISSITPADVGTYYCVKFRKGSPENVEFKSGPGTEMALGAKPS
Summary of the method: as §1

[3] = biological target: T8, human SIRP-α v1 D1 domain (human, UniProt P78324 31-149)
T8 construct: also called human v1
T8 sequence (P78324 31-149 limits assumed): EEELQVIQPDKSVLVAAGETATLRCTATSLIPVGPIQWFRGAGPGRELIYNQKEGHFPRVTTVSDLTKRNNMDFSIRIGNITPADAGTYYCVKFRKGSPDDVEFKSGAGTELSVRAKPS
Summary of the method: as §1

[4] = biological target: T9, human SIRP-α v2 D1 domain (human)
T9 construct: also called human v2
T9 sequence (chain, as listed by the source limits assumed): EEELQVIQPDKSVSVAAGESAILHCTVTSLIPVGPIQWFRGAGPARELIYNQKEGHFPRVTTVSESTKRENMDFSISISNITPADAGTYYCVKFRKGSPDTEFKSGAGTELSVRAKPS
Summary of the method: as §1

[5] = biological target: T2, cynomolgus SIRP-α D1 domain (cyno1)
Summary of the method: as §1

[6] = biological target: T3, cynomolgus SIRP-α D1 domain (cyno2)
Summary of the method: as §1

[7] = biological target: T4, mouse 129 SIRP-α D1 domain
Summary of the method: as §1

[8] = biological target: T5, NOD mouse SIRP-α D1 domain
Summary of the method: as §1

[9] = biological target: T6, C57BL/6 mouse SIRP-α D1 domain
Summary of the method: as §1

[10] = biological target: T10, human SIRPβ isoform 1 (human, UniProt O00241 30-148)
T10 construct: also called SIRPb; sirpb1
T10 sequence (O00241 30-148 limits assumed): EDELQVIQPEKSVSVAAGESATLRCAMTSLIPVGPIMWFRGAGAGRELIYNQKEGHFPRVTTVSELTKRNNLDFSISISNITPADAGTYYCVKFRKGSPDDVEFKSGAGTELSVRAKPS
Summary of the method: as §1

| Binder | koff [1] [s⁻¹] | koff [2] [s⁻¹] | koff [3] [s⁻¹] | koff [4] [s⁻¹] | koff [5] [s⁻¹] | koff [6] [s⁻¹] | koff [7] [s⁻¹] | koff [8] [s⁻¹] | koff [9] [s⁻¹] | koff [10] [s⁻¹] |
| --- | --- | --- | --- | --- | --- | --- | --- | --- | --- | --- |
| B1 | 8.94e-05 | 9.46e-05 | 5.81e-05 | 9.97e-05 | 0.000138 | 0.000161 | 0.000136 | 0.0013 | 0.00184 | 8.97e-05 |
| B2 | 8.19e-05 | 4.28e-05 | 4.98e-05 | 8.63e-05 | 0.000106 | 0.000113 | 0.000209 | 0.00135 | 0.00239 | 0.000107 |
| B3 | 6e-05 | 4.69e-05 | 4.18e-05 | 7.16e-05 | 9.63e-05 | 0.000116 | 0.000143 | 0.00119 | 0.00197 | 6.48e-05 |
| B4 | 0.000155 | 0.000177 | 0.00014 | 0.000209 | 0.000277 | 0.000269 | 0.000179 | 0.000576 | 0.000998 | 0.000187 |
| B5 | 0.000145 | 0.0001 | 0.00014 | 0.000186 | 0.000192 | 0.000175 | 0.000221 | 0.000726 | 0.0015 | 0.000153 |
| B6 | 0.000203 | 0.000215 | 0.000228 | 0.000286 | 0.000295 | 0.00028 | 0.000406 | 0.00106 | 0.00429 | 0.000362 |
| B7 | 0.000147 | 0.000134 | 0.000145 | 0.000172 | 0.000188 | 0.00019 | 0.000159 | 0.000607 | 0.000786 | 0.000154 |
| B8 | 0.000154 | 0.000102 | 0.000124 | 0.000197 | 0.000193 | 0.000207 | 0.000234 | 0.000612 | 0.00113 | 0.000125 |
| B9 | 0.00011 | 0.000126 | 0.000118 | 0.000206 | 0.00025 | 0.000255 | 0.000127 | 0.00049 | 0.00102 | 0.000138 |
| B10 | 0.000233 | 0.000199 | 0.000205 | 0.000267 | 0.000255 | 0.000216 | 0.000246 | 0.000709 | 0.000765 | 0.000229 |
| B11 | 0.000106 | 0.000104 | 8.35e-05 | 0.000135 | 0.00016 | 0.000183 | 0.000134 | 0.000823 | 0.00132 | 0.000114 |
